In PMC3212078, “Atomic Force Microscopy Study of Protein–Protein Interactions in the Cytochrome CYP11A1 (P450scc)-Containing Steroid Hydroxylase System” (Nanoscale Research Letters, 2010):

Assays:
[1] = biological target: T1, cytochrome CYP11A1 (P450scc) (bovine, UniProt P00189 40-520); experiment: SPR; Biacore 3000; about 400 RU Ad coupled by EDC/NHS to a CM5 chip; oligomeric (non-monomerized) CYP11A1 injected at 1-100 nM; 50 mM potassium phosphate pH 7.4 with 1% Emulgen 913; 1:1 Langmuir model; conditions: both partners purified
T1 construct: The same protein was used either untreated (oligomeric, non-monomerized) or after incubation with 4-12% Emulgen 913 (monomerized); the assays tell the two states apart; also called CYP11A1mon; monomerized CYP11A1; source: isolated from bovine adrenal glands
T1 sequence (looked up): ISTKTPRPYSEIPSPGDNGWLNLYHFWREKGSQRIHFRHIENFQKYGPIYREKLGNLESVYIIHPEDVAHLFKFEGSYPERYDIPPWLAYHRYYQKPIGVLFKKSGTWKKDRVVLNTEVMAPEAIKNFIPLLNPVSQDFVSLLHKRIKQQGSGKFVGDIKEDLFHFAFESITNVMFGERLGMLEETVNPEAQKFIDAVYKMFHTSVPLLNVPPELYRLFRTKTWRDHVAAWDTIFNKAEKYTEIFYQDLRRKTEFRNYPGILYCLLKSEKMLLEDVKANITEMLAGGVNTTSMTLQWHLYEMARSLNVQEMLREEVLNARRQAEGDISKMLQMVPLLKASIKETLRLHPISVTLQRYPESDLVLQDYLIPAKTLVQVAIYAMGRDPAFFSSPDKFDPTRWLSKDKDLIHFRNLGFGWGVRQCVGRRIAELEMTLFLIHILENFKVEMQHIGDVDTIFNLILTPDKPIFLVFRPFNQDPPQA

[2] = biological target: T1, cytochrome CYP11A1 (P450scc); experiment: SPR; Biacore 3000; about 400 RU Ad coupled by EDC/NHS to a CM5 chip; monomeric (Emulgen 913-monomerized) CYP11A1 injected at 1-100 nM; 50 mM potassium phosphate pH 7.4 with 1% Emulgen 913; 1:1 Langmuir model; conditions: both partners purified

Kd [1]: 210 ± 20 nM
koff [1]: 0.09 ± 0.009 s⁻¹
kon [1]: 420000 M⁻¹ s⁻¹
Kd [2]: 170 ± 15 nM
koff [2]: 0.05 ± 0.005 s⁻¹
kon [2]: 290000 M⁻¹ s⁻¹
B1: adrenodoxin (natural protein, UniProt P00257 59-186, looked up)
chain: SSSEDKITVHFINRDGETLTTKGKIGDSLLDVVVQNNLDIDGFGACEGTLACSTCHLIFEQHIFEKLEAITDEENDMLDLAYGLTDRSRLGCQICLTKAMDNMTVRVPDAVSDARESIDMGMNSSKIE
notes: adrenodoxin (Ad), recombinant; source: E. coli BL21DE3, purified after sonification
